# Test results published in IntAct's records for PubMed 21074049.
# B1: ERAD-associated E3 ubiquitin-protein ligase HRD1 (Saccharomyces cerevisiae), Q08109 (parent)
# chain: MVPENRRKQLAIFVVVTYLLTFYCVYSATKTSVSFLQVTLKLNEGFNLMVLSIFILLNSTLLWQLLTKLLFGELRLIEHEHIFERLPFTIINTLFMSSLFHERYFFTVAFFGLLLLYLKVFHWILKDRLEALLQSINDSTTMKTLIFSRFSFNLVLLAVVDYQIITRCISSIYTNQKSDIESTSLYLIQVMEFTMLLIDLLNLFLQTCLNFWEFYRSQQSLSNENNHIVHGDPTDENTVESDQSQPVLNDDDDDDDDDRQFTGLEGKFMYEKAIDVFTRFLKTALHLSMLIPFRMPMMLLKDVVWDILALYQSGTSLWKIWRNNKQLDDTLVTVTVEQLQNSANDDNICIICMDELIHSPNQQTWKNKNKKPKRLPCGHILHLSCLKNWMERSQTCPICRLPVFDEKGNVVQTTFTSNSDITTQTTVTDSTGIATDQQGFANEVDLLPTRTTSPDIRIVPTQNIDTLAMRTRSTSTPSPTWYTFPLHKTGDNSVGSSRSAYEFLITNSDEKENGIPVKLTIENHEVNSLHGDGGEQIAKKIVIPDKFIQHI
# partner: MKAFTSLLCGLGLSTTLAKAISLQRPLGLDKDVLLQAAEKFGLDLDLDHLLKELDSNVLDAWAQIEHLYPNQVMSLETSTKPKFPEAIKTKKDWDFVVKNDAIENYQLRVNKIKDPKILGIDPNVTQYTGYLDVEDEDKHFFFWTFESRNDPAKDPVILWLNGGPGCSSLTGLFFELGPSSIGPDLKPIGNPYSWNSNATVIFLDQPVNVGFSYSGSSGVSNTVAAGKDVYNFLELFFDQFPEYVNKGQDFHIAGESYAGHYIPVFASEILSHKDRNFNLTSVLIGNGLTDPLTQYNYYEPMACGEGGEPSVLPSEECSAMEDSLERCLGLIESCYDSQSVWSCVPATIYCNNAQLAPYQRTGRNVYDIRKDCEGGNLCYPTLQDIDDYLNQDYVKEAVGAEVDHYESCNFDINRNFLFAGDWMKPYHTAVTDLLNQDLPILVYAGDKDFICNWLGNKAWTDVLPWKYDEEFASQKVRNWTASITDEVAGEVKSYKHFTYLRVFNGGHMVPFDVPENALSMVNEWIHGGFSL
# Variants of: B1
# Details: with cbpy_yeast PRC1, P00729
row,effect of a mutation on the interaction,Variant
1,decreasing interaction,C399S
